# Molecular target: GLS1 (endogenous, both KGA and GAC) (UniProt D3Z7P3)
# Assay: IP of endogenous GLS1, blot PDZD8
# Conditions: reference: wild type PDZD8; sites T527
substance,measurement,value
PDZD8 (from UniProt Q8NEN9) T527A,binding against the reference,weaker
